Measurements reported in publication PMC10716581, “Fanconi anemia-associated mutation in RAD51 compromises the coordinated action of DNA-binding and ATPase activities”.

Biological target: RAD51 WT (human, UniProt Q06609 1-339)
Experiment: EMSA; 2 mM ATP, 10 mM Mg2+; 20 mM Hepes-NaOH pH 7.5, 0.1 mg/ml BSA, 1 mM DTT, 10 mM MgCl2, 150 mM KCl, 2 mM ATP or AMP-PNP or no nucleotide, 2.7 uM (nt) DNA, 37 C 10 min; 8% native PAGE in 1x TBE
Conditions: protein: recombinant; tags: N-terminal His-tag removed with thrombin; chain copies: 8; label: 5'-Cy5 on strand 1; blunt

Sequence of RAD51 WT (Q06609 whole entry): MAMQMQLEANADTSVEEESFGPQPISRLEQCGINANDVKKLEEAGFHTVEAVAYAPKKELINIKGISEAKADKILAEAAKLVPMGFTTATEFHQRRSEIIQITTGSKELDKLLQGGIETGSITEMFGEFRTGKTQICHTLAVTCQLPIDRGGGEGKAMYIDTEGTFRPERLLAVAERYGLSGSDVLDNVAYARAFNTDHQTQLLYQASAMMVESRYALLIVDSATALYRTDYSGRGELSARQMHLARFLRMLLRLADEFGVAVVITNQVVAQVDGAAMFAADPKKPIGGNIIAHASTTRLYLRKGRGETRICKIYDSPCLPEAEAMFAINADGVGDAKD

B1: Cy5-OL4/OL5 40-mer (dsDNA)
DNA 1: TAATACAAAATAAGTAAATGAATAAACAGAGAAAATAAAG
DNA 2: CTTTATTTTCTCTGTTTATTCATTTACTTATTTTGTATTA
B1: binds.
